The values below come from patent publication US9260500B2, “Peptide and use thereof” (Takeda Pharmaceutical Company Limited, priority 2009, dated 2016).

Non-standard residues stand in square brackets, D forms with d. *: point of attachment. X1 = ((1S)-1-carboxy-2-(4-hydroxyphenyl)ethyl)carbamoyl, O=C(O)[C@H](Cc1ccc(O)cc1)NC(=O)*; X4 = ((1S)-1-Carboxy-3-methylbutyl)carbamoyl, CC(C)C[C@H](NC(=O)*)C(=O)O; X3 = ((1S)-1-Carboxy-2-hydroxyethyl)carbamoyl, O=C(O)[C@H](CO)NC(=O)*; X8 = (2-Hydroxy-1-(hydroxymethyl)ethyl)carbamoyl, O=C(NC(CO)CO)*; X5 = tetrahydro‑2H‑pyran‑4‑yl‑carbamoyl, O=C(NC1CCOCC1)*; carbamoylmethylcarbamoyl = NC(=O)CNC(=O)*; morpholinocarbonyl = O=C(N1CCOCC1)*; 4Pal = N[C@@H](Cc1ccncc1)C(=O)O; dHyp = O=C(O)[C@H]1C[C@H](O)CN1; Cha = N[C@@H](CC1CCCCC1)C(=O)O; Iva = CC[C@](C)(N)C(=O)O; Aib = CC(C)(N)C(=O)O; Glycolyl = O=C(CO)*

The test system of one experiment is male C57EL/6J mice. Kind of experiment: 3-Days Continuous Subcutaneous Administration Test-1 (food intake suppressing activity). The experiment is classed as in vivo, mouse. The note with it: 0.03 mg/kg/day, subcutaneous Alzet pump, food consumption over 3 days; relative to food intake suppression rate for PYY(3-36) (1 mg/kg/day) taken as 100%. Summed up:
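Male […] mice, 12-13 weeks, received compound at 0.03 mg/kg/day by subcutaneous osmotic pump (50% DMSO vehicle), housed singly with free food access. Food consumed over 3 days measured; suppression expressed relative to PYY(3-36) (1 mg/kg/day) set as 100%.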

Experiment [1] concerns the target T1, human Y2 receptor (Homo sapiens, UniProt P49146).
T1 construct: expressed in transfected cells; membrane fraction
T1 sequence (P49146 1-381): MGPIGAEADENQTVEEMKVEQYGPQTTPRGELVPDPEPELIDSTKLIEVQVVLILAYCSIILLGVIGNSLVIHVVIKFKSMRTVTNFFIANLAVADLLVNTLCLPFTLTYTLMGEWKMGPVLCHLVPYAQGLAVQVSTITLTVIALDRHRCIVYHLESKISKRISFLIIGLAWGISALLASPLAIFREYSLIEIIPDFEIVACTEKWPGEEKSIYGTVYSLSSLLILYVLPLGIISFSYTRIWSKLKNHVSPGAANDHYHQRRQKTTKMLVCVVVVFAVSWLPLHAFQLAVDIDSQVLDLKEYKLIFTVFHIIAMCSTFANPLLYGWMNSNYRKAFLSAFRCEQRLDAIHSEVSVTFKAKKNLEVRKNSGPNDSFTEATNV
Briefly: Human Y2 Receptor G Protein Binding Assay (GBA), [35S]GTPγS. The experiment is classed as biochemical. The conditions noted are these: EC50 of test compound/EC50 of PYY(3-36) (PYY3-36 taken as 1), hY2R/CHO membrane fraction. Summed up: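 Agonism measured as [35S]GTPγS binding, read by GF/C filtration and scintillation counting after 120 min at room temperature, using human Y2 membranes at 1 μg protein/mL in pH 7.4 Tris/MgCl2/NaCl/GDP buffer. Compound serially diluted 100 μM–1 nM; EC50 normalized to PYY(3-36) (ratio = compound/PYY).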
(GTPγS resists hydrolysis and so accumulates on activated G proteins.)

The target of experiment [2] is T1, human Y2 receptor. Briefly: Receptor Binding Assay (RBA) for Human Y2, [125I]-PYY displacement on hY2R/CHO membrane fraction. The note with it: IC50 of test compound/IC50 of PYY(3-36) (PYY(3-36) taken as 1). Summed up: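 hY2R stably expressed in CHO/dhfr− cells; membrane fraction prepared from cells disrupted in 10 mM NaHCO3, 5 mM EDTA buffer with protease inhibitors. Binding read as displacement of [125I]-PYY.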

As to “Carbamoylmethylcarbamoyl-[D-Pro24, Iva25, Pya(4)26, Cha27,36, Aib28,31, Lys30]-PYY(23-36) (carbamoylmethylcarbamoyl-S[dP][Iva][4Pal][Cha][Aib]NK[Aib]TRQR[Cha]-NH2; SMILES CC[C@](C)(NC(=O)[C@H]1CCCN1C(=O)[C@H](CO)NC(=O)NCC(N)=O)C(=O)N[C@@H](Cc1ccncc1)C(=O)N[C@@H](CC1CCCCC1)C(=O)NC(C)(C)C(=O)N[C@@H](CC(N)=O)C(=O)N[C@@H](CCCCN)C(=O)NC(C)(C)C(=O)N[C@H](C(=O)N[C@@H](CCCNC(=N)N)C(=O)N[C@@H](CCC(N)=O)C(=O)N[C@@H](CCCNC(=N)N)C(=O)N[C@@H](CC1CCCCC1)C(N)=O)[C@@H](C)O) [compound No. 331]”, the “food intake suppression rate (%)” value in the experiment with male C57EL/6J mice turned out to be 35%. Also, in the experiment with human Y2 receptor [1], the “GBA EC50 Ratio” value was found to be 1.7. In the experiment with human Y2 receptor [2], the “RBA IC50 Ratio” value turned out to be 1.7.
For “Glycoloyl-[D-Hyp24, Iva25,28, Pya(4)26, Cha27,36, Leu(Me)28, Lys30, Aib31]-PYY(23-36) (Glycolyl-S[dHyp][Iva][4Pal][Cha][Iva]NK[Aib]TRQR[Cha]-NH2) [compound No. 338]”, in the experiment with male C57EL/6J mice, the “food intake suppression rate (%)” value is listed as 27%. Moreover, in the experiment with human Y2 receptor [1], the “GBA EC50 Ratio” value was 2.1. In addition, the “RBA IC50 Ratio” value with human Y2 receptor [2] was 1.9.
For “Morpholinocarbonyl-[D-Pro24, Pya(4)26, Cha27,36, Aib28,31, Lys30]-PYY(23-36) (morpholinocarbonyl-S[dP]R[4Pal][Cha][Aib]NK[Aib]TRQR[Cha]-NH2; SMILES C[C@@H](O)[C@H](NC(=O)C(C)(C)NC(=O)[C@H](CCCCN)NC(=O)[C@H](CC(N)=O)NC(=O)C(C)(C)NC(=O)[C@H](CC1CCCCC1)NC(=O)[C@H](Cc1ccncc1)NC(=O)[C@H](CCCNC(=N)N)NC(=O)[C@H]1CCCN1C(=O)[C@H](CO)NC(=O)N1CCOCC1)C(=O)N[C@@H](CCCNC(=N)N)C(=O)N[C@@H](CCC(N)=O)C(=O)N[C@@H](CCCNC(=N)N)C(=O)N[C@@H](CC1CCCCC1)C(N)=O) [compound No. 268]”, in that order: 16%, 0.57 and 0.89.
Taken in the same sequence, the figures for “Tetrahydro-2H-pyran-4-yl-carbamoyl-[D-Pro24, Pya(4)26, Cha27,36, Aib28,31, Lys30]-PYY(23-36) (X5-S[dP]R[4Pal][Cha][Aib]NK[Aib]TRQR[Cha]-NH2; ends and bridges not checked) [compound No. 270]” were 28%, 0.61 and 0.52.
Regarding “Tetrahydro-2H-pyran-4-yl-carbamoyl-[Glu23, D-Pro24, Pya(4)26, Cha27,36, Aib28,31, Lys30]-PYY(23-36) (X5-E[dP]R[4Pal][Cha][Aib]NK[Aib]TRQR[Cha]-NH2; ends and bridges not checked) [compound No. 282]”, the “food intake suppression rate (%)” value with male C57EL/6J mice was found to be 30%. In the experiment with human Y2 receptor [1], the “GBA EC50 Ratio” value was determined as 1.6. In addition, the “RBA IC50 Ratio” value in the experiment with human Y2 receptor [2] amounted to 1.1.
Turning to “[2-Hydroxy-1-(hydroxymethyl)ethyl]carbamoyl-[D-Pro24, Iva25, Pya(4)26, Cha27,36, Aib28,31, Lys30]-PYY(23-36) (X8-S[dP][Iva][4Pal][Cha][Aib]NK[Aib]TRQR[Cha]-NH2; SMILES CC[C@](C)(NC(=O)[C@H]1CCCN1C(=O)[C@H](CO)NC(=O)NC(CO)CO)C(=O)N[C@@H](Cc1ccncc1)C(=O)N[C@@H](CC1CCCCC1)C(=O)NC(C)(C)C(=O)N[C@@H](CC(N)=O)C(=O)N[C@@H](CCCCN)C(=O)NC(C)(C)C(=O)N[C@H](C(=O)N[C@@H](CCCNC(=N)N)C(=O)N[C@@H](CCC(N)=O)C(=O)N[C@@H](CCCNC(=N)N)C(=O)N[C@@H](CC1CCCCC1)C(N)=O)[C@@H](C)O) [compound No. 339]”, the “food intake suppression rate (%)” value in the experiment on male C57EL/6J mice was 51%. For the same substance, the “GBA EC50 Ratio” value with human Y2 receptor [1] was 2.0. The “RBA IC50 Ratio” value with human Y2 receptor [2] is recorded as 1.76.
“[(1S)-1-Carboxy-2-(4-hydroxyphenyl)ethyl]carbamoyl-[D-Pro24, Pya(4)26, Cha27,36, Aib28,31, Lys30]-PYY(23-36) (X1-S[dP]R[4Pal][Cha][Aib]NK[Aib]TRQR[Cha]-NH2; SMILES C[C@@H](O)[C@H](NC(=O)C(C)(C)NC(=O)[C@H](CCCCN)NC(=O)[C@H](CC(N)=O)NC(=O)C(C)(C)NC(=O)[C@H](CC1CCCCC1)NC(=O)[C@H](Cc1ccncc1)NC(=O)[C@H](CCCNC(=N)N)NC(=O)[C@H]1CCCN1C(=O)[C@H](CO)NC(=O)N[C@@H](Cc1ccc(O)cc1)C(=O)O)C(=O)N[C@@H](CCCNC(=N)N)C(=O)N[C@@H](CCC(N)=O)C(=O)N[C@@H](CCCNC(=N)N)C(=O)N[C@@H](CC1CCCCC1)C(N)=O) [compound No. 285]”: in the experiment on male C57EL/6J mice, the “food intake suppression rate (%)” value is recorded as 28%. In addition, the “GBA EC50 Ratio” value with human Y2 receptor [1] stood at 1.2. Moreover, the “RBA IC50 Ratio” value with human Y2 receptor [2] turned out to be 0.95.
For “[(1S)-1-Carboxy-2-hydroxyethyl]carbamoyl-[D-Pro24, Iva25, Pya(4)26, Cha27,36, Aib28,31, Lys30]-PYY(23-36) (X3-S[dP][Iva][4Pal][Cha][Aib]NK[Aib]TRQR[Cha]-NH2; SMILES CC[C@](C)(NC(=O)[C@H]1CCCN1C(=O)[C@H](CO)NC(=O)N[C@@H](CO)C(=O)O)C(=O)N[C@@H](Cc1ccncc1)C(=O)N[C@@H](CC1CCCCC1)C(=O)NC(C)(C)C(=O)N[C@@H](CC(N)=O)C(=O)N[C@@H](CCCCN)C(=O)NC(C)(C)C(=O)N[C@H](C(=O)N[C@@H](CCCNC(=N)N)C(=O)N[C@@H](CCC(N)=O)C(=O)N[C@@H](CCCNC(=N)N)C(=O)N[C@@H](CC1CCCCC1)C(N)=O)[C@@H](C)O) [compound No. 332]”, the “food intake suppression rate (%)” value with male C57EL/6J mice is reported as 32%. In addition, the “GBA EC50 Ratio” value with human Y2 receptor [1] came to 3.0. The “RBA IC50 Ratio” value with human Y2 receptor [2] was 3.5.
Consider “[(1S)-1-Carboxy-3-methylbutyl]carbamoyl-[D-Pro24, Pya(4)26, Cha27,36, Aib28,31, Lys30]-PYY(23-36) (X4-S[dP]R[4Pal][Cha][Aib]NK[Aib]TRQR[Cha]-NH2; SMILES CC(C)C[C@H](NC(=O)N[C@@H](CO)C(=O)N1CCC[C@@H]1C(=O)N[C@@H](CCCNC(=N)N)C(=O)N[C@@H](Cc1ccncc1)C(=O)N[C@@H](CC1CCCCC1)C(=O)NC(C)(C)C(=O)N[C@@H](CC(N)=O)C(=O)N[C@@H](CCCCN)C(=O)NC(C)(C)C(=O)N[C@H](C(=O)N[C@@H](CCCNC(=N)N)C(=O)N[C@@H](CCC(N)=O)C(=O)N[C@@H](CCCNC(=N)N)C(=O)N[C@@H](CC1CCCCC1)C(N)=O)[C@@H](C)O)C(=O)O) [compound No. 271]”, for which the “food intake suppression rate (%)” value with male C57EL/6J mice was found to be 28%. In addition, the “GBA EC50 Ratio” value in the experiment with human Y2 receptor [1] is 0.82. The “RBA IC50 Ratio” value with human Y2 receptor [2] is recorded as 0.82.
With “[(1S)-1-Carboxy-3-methylbutyl]carbamoyl-[Gln23, D-Pro24, Pya(4)26, Cha27,36, Aib28,31, Lys30]-PYY(23-36) (X4-Q[dP]R[4Pal][Cha][Aib]NK[Aib]TRQR[Cha]-NH2; SMILES CC(C)C[C@H](NC(=O)N[C@@H](CCC(N)=O)C(=O)N1CCC[C@@H]1C(=O)N[C@@H](CCCNC(=N)N)C(=O)N[C@@H](Cc1ccncc1)C(=O)N[C@@H](CC1CCCCC1)C(=O)NC(C)(C)C(=O)N[C@@H](CC(N)=O)C(=O)N[C@@H](CCCCN)C(=O)NC(C)(C)C(=O)N[C@H](C(=O)N[C@@H](CCCNC(=N)N)C(=O)N[C@@H](CCC(N)=O)C(=O)N[C@@H](CCCNC(=N)N)C(=O)N[C@@H](CC1CCCCC1)C(N)=O)[C@@H](C)O)C(=O)O) [compound No. 284]”, the “food intake suppression rate (%)” value with male C57EL/6J mice worked out at 21%. Moreover, the “GBA EC50 Ratio” value in the experiment with human Y2 receptor [1] stood at 1.3. For the same substance, the “RBA IC50 Ratio” value with human Y2 receptor [2] stood at 0.93.
Turning to “[(1S)-1-Carboxy-3-methylbutyl]carbamoyl-[Glu23, D-Pro24, Pya(4)26, Cha27,36, Aib28,31, Lys30]-PYY(23-36) (X4-E[dP]R[4Pal][Cha][Aib]NK[Aib]TRQR[Cha]-NH2; SMILES CC(C)C[C@H](NC(=O)N[C@@H](CCC(=O)O)C(=O)N1CCC[C@@H]1C(=O)N[C@@H](CCCNC(=N)N)C(=O)N[C@@H](Cc1ccncc1)C(=O)N[C@@H](CC1CCCCC1)C(=O)NC(C)(C)C(=O)N[C@@H](CC(N)=O)C(=O)N[C@@H](CCCCN)C(=O)NC(C)(C)C(=O)N[C@H](C(=O)N[C@@H](CCCNC(=N)N)C(=O)N[C@@H](CCC(N)=O)C(=O)N[C@@H](CCCNC(=N)N)C(=O)N[C@@H](CC1CCCCC1)C(N)=O)[C@@H](C)O)C(=O)O) [compound No. 283]”, in the experiment with male C57EL/6J mice, the “food intake suppression rate (%)” value was 18%. Also, in the experiment with human Y2 receptor [1], the “GBA EC50 Ratio” value came out at 2.5. In the experiment with human Y2 receptor [2], the “RBA IC50 Ratio” value stood at 2.2.
